Tests used:
[1] = molecular target: T1, human hepcidin-25 (L-peptide) (Homo sapiens) (UniProt P81172); assay: SPR; conditions: L-RNA, 37 C
T1 sequence: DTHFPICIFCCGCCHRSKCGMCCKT

[2] = molecular target: T2, biotinylated human D-hepcidin-25 (mirror-image peptide) (Homo sapiens) (UniProt P81172); assay: SPR; conditions: 37 C, 1 mM Mg, 1 mM Ca
T2 sequence: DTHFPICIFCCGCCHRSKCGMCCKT

[3] = 5'-40 kDa PEG, 1 mM Mg, 1 mM Ca

Sequence | Kd [1, 3] [nM] | Kd ([1]; 1 mM Mg, 1 mM Ca) [nM] | also measured
GCGCGCGUAUGGGAUUAAGUAAAUGAGGAGUUGGAGGAAGGCGCGC [238-D4-002-5'-PEG] | 0.53 | – | –
GGCCGGACAGCCGGGGGACACCAUAUACAGACUACGAUACGGCC [238-C4-006-5'-PEG] | 0.76 | – | –
CGUGUGUAAAGUAGAGGACAAUUGUCGGCGUGAUAGUGCCACACG [229-B1-001 (L-RNA)] | – | – | Kd ([1]; data not shown): 1.25 nM
GCGCCGUAUGGGAUUAAGUAAAUGAGGAGUUGGAGGAAGGGCGC [238-D4-008-5'-PEG (NOX-H94)] | 0.64 | – | –
CGUGUGUAAAGUAGAGGACAAUUGUCGGCGUGAUAGUGCCACACG [229-B1-001 (D-RNA)] | – | – | Kd [2]: 0.5 nM
GCUGUGUAAAGUAGAGGACAAUUGUCGGCGUGAUAGUGCCACAGC [229-B1-002 (L-RNA)] | – | 1.47 | –
GCACUCGUAAAGUAGAGGGACCCAGUCCGGCGUGAUAGUGCCGAGUGC [223-C5-001 (L-RNA)] | – | 2.7 | –
GCACUCGUAAAGUAGAGGGACCCAGUCCGGCGUGAUAGUGCCGAGUGC [223-C5-001-5'-PEG] | 4.44 | – | –
GCACUCGUAAAGUAGAGGGACCCAGUCCGGCGUGAUAGUGCCGAGUGC [223-C5-001 (D-RNA)] | – | – | Kd [2]: 1.2 nM
AGGCUCGGACAGCCGGGGGACACCAUAUACAGACUACGAUACGGGCCU [238-C4-001 (L-RNA)] | – | 0.9 | –
AGCGUGUCGUAUGGGAUUAAGUAAAUGAGGAGUUGGAGGAAGGGCAUGCU [238-D4-001 (L-RNA)] | – | 0.51 | –
GCUGUGUAAAGUAGAGGACAAUUGUCGGCGUGAUAGUGCCACAGC [229-B1-002-5'-PEG] | 1.92 | – | –

Reference: patent publication US20160257958
